Target: Neh2-luciferase fusion protein (human; firefly)

With “FLAG-labeled Keap1 expressed from an adenovirus” the background luminescence of the Neh2-luc reporter cell line (fold decrease) was 3.5.

— patent US20130005666A1
